The values that follow come from US7211395 (dated 2007).

The target in one test is bovine serum albumin (bovine, UniProt P02769). Put plainly: FP, pH 6.2, no NaCl.
The target in test [1] is T1, human serum albumin (HSA) (human, UniProt P02768). Put plainly: FP, pH 6.2, no NaCl.
In test [2] the target is T1, human serum albumin (HSA). In words: FP, PBS pH 7.4.
The target in the next test is T2, rabbit serum albumin (rabbit, UniProt P49065).
T2 chain: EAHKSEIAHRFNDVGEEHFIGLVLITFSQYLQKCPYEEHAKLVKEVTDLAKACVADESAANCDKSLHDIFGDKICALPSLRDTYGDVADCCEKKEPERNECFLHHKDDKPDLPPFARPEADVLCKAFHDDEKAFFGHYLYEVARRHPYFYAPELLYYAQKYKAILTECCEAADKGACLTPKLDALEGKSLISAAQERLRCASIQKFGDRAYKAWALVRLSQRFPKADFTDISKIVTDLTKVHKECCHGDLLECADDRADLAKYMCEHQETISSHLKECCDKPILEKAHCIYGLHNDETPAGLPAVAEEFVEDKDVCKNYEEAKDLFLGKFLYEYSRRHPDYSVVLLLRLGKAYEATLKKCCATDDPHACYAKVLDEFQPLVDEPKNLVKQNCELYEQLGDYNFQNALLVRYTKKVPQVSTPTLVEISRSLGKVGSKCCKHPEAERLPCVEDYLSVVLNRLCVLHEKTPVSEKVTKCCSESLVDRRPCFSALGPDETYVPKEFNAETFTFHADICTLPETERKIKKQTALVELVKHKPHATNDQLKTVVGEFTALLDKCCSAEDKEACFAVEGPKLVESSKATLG
In words: FP, PBS pH 7.4.

The target in test [3] is T1, human serum albumin (HSA). Put plainly: FP, pH 7.4, 0.14 M NaCl.
Test [4] has as its target T1, human serum albumin (HSA). Put plainly: FP, pH 6.2, 0.14 M NaCl.
Another test has as its target T3, rhesus serum albumin (rhesus macaque, UniProt Q28522).
T3 chain: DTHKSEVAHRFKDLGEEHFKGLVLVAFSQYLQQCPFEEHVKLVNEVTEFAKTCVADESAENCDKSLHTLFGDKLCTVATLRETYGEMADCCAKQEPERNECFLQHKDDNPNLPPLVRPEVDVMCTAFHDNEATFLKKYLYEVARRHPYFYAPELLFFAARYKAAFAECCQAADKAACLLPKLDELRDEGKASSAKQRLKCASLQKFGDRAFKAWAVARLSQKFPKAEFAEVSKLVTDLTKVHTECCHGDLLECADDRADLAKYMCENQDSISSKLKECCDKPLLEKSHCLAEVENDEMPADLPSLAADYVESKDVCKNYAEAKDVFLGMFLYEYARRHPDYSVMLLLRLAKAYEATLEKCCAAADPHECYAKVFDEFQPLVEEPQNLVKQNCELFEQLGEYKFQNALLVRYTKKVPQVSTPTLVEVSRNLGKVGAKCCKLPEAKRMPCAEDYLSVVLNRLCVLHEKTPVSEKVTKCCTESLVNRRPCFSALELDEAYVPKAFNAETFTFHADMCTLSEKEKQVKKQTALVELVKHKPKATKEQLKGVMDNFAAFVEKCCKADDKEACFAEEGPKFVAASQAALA
Put plainly: FP, PBS pH 7.4.

Another test concerns the target T4, chicken ovalbumin (chicken, UniProt P01012).
T4 chain: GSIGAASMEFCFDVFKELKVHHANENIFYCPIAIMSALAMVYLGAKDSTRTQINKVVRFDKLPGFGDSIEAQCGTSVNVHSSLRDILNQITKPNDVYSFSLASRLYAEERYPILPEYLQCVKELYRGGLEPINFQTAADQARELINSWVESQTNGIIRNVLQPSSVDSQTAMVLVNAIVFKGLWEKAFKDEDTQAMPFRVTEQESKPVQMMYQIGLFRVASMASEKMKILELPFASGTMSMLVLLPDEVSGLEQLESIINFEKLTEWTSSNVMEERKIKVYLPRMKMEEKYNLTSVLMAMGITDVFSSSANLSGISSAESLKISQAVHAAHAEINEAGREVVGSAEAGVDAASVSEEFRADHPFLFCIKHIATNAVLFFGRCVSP
In words: FP, pH 6.2, no NaCl.

Test [5] concerns the target T5, mouse serum albumin (mouse, UniProt P07724). Put plainly: FP, pH 6.2, no NaCl.
The next test deals with T6, pig serum albumin (pig, UniProt P08835).
T6 chain: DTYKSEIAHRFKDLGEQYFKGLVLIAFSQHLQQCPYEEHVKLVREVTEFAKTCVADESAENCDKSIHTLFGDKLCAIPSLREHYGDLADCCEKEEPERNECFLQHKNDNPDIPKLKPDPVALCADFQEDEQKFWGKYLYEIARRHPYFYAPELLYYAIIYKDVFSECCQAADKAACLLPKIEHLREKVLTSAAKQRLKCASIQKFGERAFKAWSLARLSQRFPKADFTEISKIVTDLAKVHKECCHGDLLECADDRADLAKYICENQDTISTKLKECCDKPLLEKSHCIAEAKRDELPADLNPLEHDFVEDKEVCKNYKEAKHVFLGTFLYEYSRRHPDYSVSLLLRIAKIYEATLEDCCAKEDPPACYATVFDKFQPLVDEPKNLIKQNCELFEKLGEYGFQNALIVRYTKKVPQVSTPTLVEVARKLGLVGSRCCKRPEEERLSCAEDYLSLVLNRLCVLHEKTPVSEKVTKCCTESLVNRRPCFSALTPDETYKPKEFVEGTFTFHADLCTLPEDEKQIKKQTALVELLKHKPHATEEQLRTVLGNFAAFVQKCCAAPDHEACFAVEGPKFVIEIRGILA
In words: FP, PBS pH 7.4.

The target in test [6] is T5, mouse serum albumin. Put plainly: FP, PBS pH 7.4.
Test [7] concerns the target T1, human serum albumin (HSA). Put plainly: FP, pH 6.2, no NaCl. This is another data set of the same source.

T5 sequence (P07724 25-608): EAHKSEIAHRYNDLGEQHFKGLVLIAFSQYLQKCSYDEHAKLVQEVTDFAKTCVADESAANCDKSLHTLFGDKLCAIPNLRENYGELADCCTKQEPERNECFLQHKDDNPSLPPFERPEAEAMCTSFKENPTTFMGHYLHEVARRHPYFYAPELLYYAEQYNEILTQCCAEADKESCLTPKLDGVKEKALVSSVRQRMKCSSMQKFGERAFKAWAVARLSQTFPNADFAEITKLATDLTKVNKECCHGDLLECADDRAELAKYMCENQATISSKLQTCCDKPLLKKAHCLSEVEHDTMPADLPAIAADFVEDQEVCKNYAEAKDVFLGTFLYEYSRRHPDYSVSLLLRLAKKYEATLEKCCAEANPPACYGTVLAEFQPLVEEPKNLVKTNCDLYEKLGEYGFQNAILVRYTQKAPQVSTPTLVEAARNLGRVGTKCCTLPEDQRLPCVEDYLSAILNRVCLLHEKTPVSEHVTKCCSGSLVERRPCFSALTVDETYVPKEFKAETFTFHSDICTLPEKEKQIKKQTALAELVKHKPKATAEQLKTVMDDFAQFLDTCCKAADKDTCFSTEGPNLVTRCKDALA
Chain of bovine serum albumin (P02769 25-607): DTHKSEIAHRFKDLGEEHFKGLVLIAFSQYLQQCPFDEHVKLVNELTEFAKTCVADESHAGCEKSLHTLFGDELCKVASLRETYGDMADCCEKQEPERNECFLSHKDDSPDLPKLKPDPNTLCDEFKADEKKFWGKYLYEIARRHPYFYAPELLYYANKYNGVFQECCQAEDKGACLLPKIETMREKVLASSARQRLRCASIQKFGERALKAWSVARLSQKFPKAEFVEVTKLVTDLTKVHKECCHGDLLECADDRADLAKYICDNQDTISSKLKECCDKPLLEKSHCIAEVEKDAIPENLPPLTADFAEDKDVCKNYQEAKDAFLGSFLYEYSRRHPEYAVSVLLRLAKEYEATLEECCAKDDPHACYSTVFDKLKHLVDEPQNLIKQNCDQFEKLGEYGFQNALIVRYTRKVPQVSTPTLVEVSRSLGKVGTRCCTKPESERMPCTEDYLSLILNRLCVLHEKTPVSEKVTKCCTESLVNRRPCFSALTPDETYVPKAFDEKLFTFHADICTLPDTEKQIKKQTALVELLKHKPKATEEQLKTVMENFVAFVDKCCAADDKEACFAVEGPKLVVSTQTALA

B1: DX-321 (peptide)
chain: AEGTGDRNMCKFSWIRSPAFCARADPEXK
modifications: disulfide cyclic, N-acetyl, C-amide, X = 6-aminohexanoic acid, fluorescein on Lys
As to B1, the Kd with bovine serum albumin is 21 µM; in [1] it was 900 nM; in test [2], 84 µM; with rabbit serum albumin it was above 200 µM; in test [3], 84 µM; in test [4], 9 µM. The Kd in the test with rhesus serum albumin is 82 µM; with chicken ovalbumin, above 200 µM; with mouse serum albumin [5] it was above 200 µM; with pig serum albumin, above 200 µM; in the test with mouse serum albumin [6] it was above 200 µM; in [7], 900 nM.
